# Non-standard residues stand in square brackets, D forms with d. No end group written: not given here. Cha = N[C@@H](CC1CCCCC1)C(=O)O; 14 = not defined here
# T1: HLA-DR5 (DRB1*11011), purified from cell line SWEIG (human)
# T1 chain 1: not shown
# T1 chain 2: not shown
# T2: HLA-DR4w4 (DRB1*0401), purified from cell line PREISS (human)
# T2 chain 1: not shown
# T2 chain 2: not shown
# T3: HLA-DR3 (DRB1*0301), purified from cell line MAT (human)
# T3 chain 1: not shown
# T3 chain 2: not shown
# T4: HLA-DR7 (DRB1*0701), purified from cell line PITOUT (human)
# T4 chain 1: not shown
# T4 chain 2: not shown
# T5: HLA-DR4w4 (DRB1*0401), purified from PREISS cells (human)
# T5 chain 1: not shown
# T5 chain 2: not shown
# T6: mouse class II IA^k, purified from CH12 cells (mouse), P01910
# T6 chain 1: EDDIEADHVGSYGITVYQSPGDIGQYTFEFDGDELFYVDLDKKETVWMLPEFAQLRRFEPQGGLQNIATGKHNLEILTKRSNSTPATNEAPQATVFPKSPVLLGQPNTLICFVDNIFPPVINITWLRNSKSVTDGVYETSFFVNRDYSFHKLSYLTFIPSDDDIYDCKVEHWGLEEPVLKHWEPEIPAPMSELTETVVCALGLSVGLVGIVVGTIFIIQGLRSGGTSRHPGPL
# T6 chain 2: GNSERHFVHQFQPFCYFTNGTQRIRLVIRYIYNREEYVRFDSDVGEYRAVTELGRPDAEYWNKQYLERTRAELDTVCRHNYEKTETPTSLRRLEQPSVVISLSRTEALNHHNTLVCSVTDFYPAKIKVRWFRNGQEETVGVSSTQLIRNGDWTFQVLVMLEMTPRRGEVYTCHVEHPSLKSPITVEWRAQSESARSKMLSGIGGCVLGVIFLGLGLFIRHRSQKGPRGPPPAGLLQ
# T7: HLA-DRw53 (DRB4*0101), purified from L257.6 transfected fibroblasts (human)
# T7 chain 1: not shown
# T7 chain 2: not shown
# T8: HLA-DR7 (DRB1*0701), purified from PITOUT cells (human)
# T8 chain 1: not shown
# T8 chain 2: not shown
# T9: HLA-DR3 (DRB1*0301), purified from MAT cells (human)
# T9 chain 1: not shown
# T9 chain 2: not shown
# T10: HLA-DR5 (DRB1*11011), purified from SWEIG cells (human)
# T10 chain 1: not shown
# T10 chain 2: not shown
# T11: mouse class II IA^b, purified from DB27.4 cells (mouse), P14434
# T11 chain 1: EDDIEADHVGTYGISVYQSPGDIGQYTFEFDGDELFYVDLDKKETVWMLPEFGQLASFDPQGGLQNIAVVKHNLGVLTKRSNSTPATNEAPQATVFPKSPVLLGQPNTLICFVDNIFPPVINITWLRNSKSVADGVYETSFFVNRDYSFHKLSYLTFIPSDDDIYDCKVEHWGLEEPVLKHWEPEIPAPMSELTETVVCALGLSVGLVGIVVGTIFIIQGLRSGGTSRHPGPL
# T11 chain 2: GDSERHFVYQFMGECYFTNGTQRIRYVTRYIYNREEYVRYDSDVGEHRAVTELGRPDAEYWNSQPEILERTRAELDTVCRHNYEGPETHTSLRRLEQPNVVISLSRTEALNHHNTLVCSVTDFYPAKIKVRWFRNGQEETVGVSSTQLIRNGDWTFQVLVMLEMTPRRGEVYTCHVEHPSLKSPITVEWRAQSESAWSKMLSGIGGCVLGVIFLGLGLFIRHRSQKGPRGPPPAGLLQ
# How the values were obtained:
# [1] = target: T1, HLA-DR5 (DRB1*11011), purified from …; assay: competition vs 125I-peptide, purified class II MHC
# [2] = target: T2, HLA-DR4w4 (DRB1*0401), purified from …; assay: competition vs 125I-peptide, purified class II MHC
# [3] = target: T3, HLA-DR3 (DRB1*0301), purified from cell …; assay: competition vs 125I-peptide, purified class II MHC
# [4] = target: HLA-DR1 (DRB1*0101), purified from LG2 cells (human); assay: 125I-peptide inhibition, purified class II
# [5] = target: T4, HLA-DR7 (DRB1*0701), purified from cell …; assay: competition vs 125I-peptide, purified class II MHC
# [6] = target: mouse class II IA^s, purified from LS102.9 cells (mouse); assay: 125I-peptide inhibition, purified class II
# [7] = target: T5, HLA-DR4w4 (DRB1*0401), purified from …; assay: 125I-peptide inhibition, purified class II
# [8] = target: mouse class II IE^k, purified from CH12 cells (mouse); assay: 125I-peptide inhibition, purified class II
# [9] = target: T6, mouse class II IA^k, purified from CH12 …; assay: 125I-peptide inhibition, purified class II
# [10] = target: T7, HLA-DRw53 (DRB4*0101), purified from …; assay: 125I-peptide inhibition, purified class II
# [11] = target: T8, HLA-DR7 (DRB1*0701), purified from …; assay: 125I-peptide inhibition, purified class II
# [12] = target: T9, HLA-DR3 (DRB1*0301), purified from MAT …; assay: 125I-peptide inhibition, purified class II
# [13] = target: T10, HLA-DR5 (DRB1*11011), purified from …; assay: 125I-peptide inhibition, purified class II
# [14] = target: T11, mouse class II IA^b, purified from …; assay: 125I-peptide inhibition, purified class II
# [15] = target: mouse class II IE^d, purified from A20 cells (mouse); assay: 125I-peptide inhibition, purified class II
binder,measurement,setting,value
"[dA]K[14]VWANTLKAA[dA]-NH2 (reading uncertain; also: printed as aK(14)VWANTLKAAa-NH2) [peptide 965.031, aK(14)…a-NH2]",IC50,[1],8.3 nM
same,IC50,[2],2.1 nM
"[dA]K[14]VKAWTLKAA[dA]-NH2 (reading uncertain; also: printed as aK(14)VKAWTLKAAa-NH2) [peptide 965.022, aK(14)…a-NH2]",IC50,[1],1.1 nM
same,IC50,[2],0.8 nM
"[dA]K[14]VKANTLKAA[dA]-NH2 (reading uncertain; also: printed as aK(14)VKANTLKAAa-NH2) [peptide 965.012, aK(14)…a-NH2]",IC50,[3],4590 nM
same,IC50,[1],2.2 nM
same,IC50,[2],2.1 nM
[dA]A[Cha]AAKATLKAA[dA]-NH2 (N-terminus assumed; SMILES CC(C)C[C@H](NC(=O)[C@@H](NC(=O)[C@H](C)NC(=O)[C@H](CCCCN)NC(=O)[C@H](C)NC(=O)[C@H](C)NC(=O)[C@H](CC1CCCCC1)NC(=O)[C@H](C)NC(=O)[C@@H](C)N)[C@@H](C)O)C(=O)N[C@@H](CCCCN)C(=O)N[C@@H](C)C(=O)N[C@@H](C)C(=O)N[C@H](C)C(N)=O) [906.18],fold decrease of binding activity vs 760.57,[4],8 fold
"[dA]K[14]VWANTLKAA[dA]-NH2 (reading uncertain; also: printed as aK(14)VWANTLKAAa-NH2) [peptide 965.032, aK(14)…a-NH2]",IC50,[3],849 nM
same,IC50,[1],2.9 nM
same,IC50,[2],0.7 nM
"[dA]K[14]VYAWTLKAA[dA]-NH2 (reading uncertain; also: printed as aK(14)VYAWTLKAAa-NH2) [peptide 965.051, aK(14)…a-NH2]",IC50,[5],833 nM
same,IC50,[1],5.7 nM
same,IC50,[2],0.3 nM
HSLGKWLGHPDKF (modifications not checked) [PLP 139-151],IC50,[6],86 nM
[dA]A[Cha]AAAATLKAA[dA] [760.57],IC50,[7],2 nM
same,IC50,[8],78 nM
same,IC50,[9],5260 nM
same,IC50,[10],3300 nM
same,IC50,[11],78 nM
same,IC50,[6],120 nM
same,IC50,[4],4.5 nM
"[dA]K[14]VYAWTLKAA[dA]-NH2 (reading uncertain; also: printed as aK(14)VYAWTLKAAa-NH2) [peptide 965.052, aK(14)…a-NH2]",IC50,[5],25.5 nM
same,IC50,[1],6.9 nM
same,IC50,[2],0.8 nM
[dA]A[Cha]AAAATLKAF[dA]-NH2 (N-terminus assumed; SMILES CC(C)C[C@H](NC(=O)[C@@H](NC(=O)[C@H](C)NC(=O)[C@H](C)NC(=O)[C@H](C)NC(=O)[C@H](C)NC(=O)[C@H](CC1CCCCC1)NC(=O)[C@H](C)NC(=O)[C@@H](C)N)[C@@H](C)O)C(=O)N[C@@H](CCCCN)C(=O)N[C@@H](C)C(=O)N[C@@H](Cc1ccccc1)C(=O)N[C@H](C)C(N)=O) [906.50],fold increase in reactivity vs 760.57,[12],8 fold
same,fold increase in reactivity vs 760.57,[10],40 fold
[dA]V[Cha]AAAATLKAA[dA]-NH2 (N-terminus assumed; SMILES CC(C)C[C@H](NC(=O)[C@@H](NC(=O)[C@H](C)NC(=O)[C@H](C)NC(=O)[C@H](C)NC(=O)[C@H](C)NC(=O)[C@H](CC1CCCCC1)NC(=O)[C@@H](NC(=O)[C@@H](C)N)C(C)C)[C@@H](C)O)C(=O)N[C@@H](CCCCN)C(=O)N[C@@H](C)C(=O)N[C@@H](C)C(=O)N[C@H](C)C(N)=O) [906.04],fold increase in reactivity vs 760.57,[12],3 fold
same,fold increase in reactivity vs 760.57,[10],30 to 100 fold
[dA]A[Cha]AAAATEKAA[dA]-NH2 (N-terminus assumed; SMILES C[C@H](NC(=O)[C@H](C)NC(=O)[C@H](C)NC(=O)[C@H](CC1CCCCC1)NC(=O)[C@H](C)NC(=O)[C@@H](C)N)C(=O)N[C@@H](C)C(=O)N[C@H](C(=O)N[C@@H](CCC(=O)O)C(=O)N[C@@H](CCCCN)C(=O)N[C@@H](C)C(=O)N[C@@H](C)C(=O)N[C@H](C)C(N)=O)[C@@H](C)O) [906.30],fold loss of binding reactivity vs 760.57,[13],10 fold
same,fold loss of binding reactivity vs 760.57,[7],7 fold
same,fold loss of binding reactivity vs 760.57,[11],10 fold
same,fold loss of binding reactivity vs 760.57,[4],8 fold
[dA]A[Cha]AFAATLKAA[dA]-NH2 (N-terminus assumed; SMILES CC(C)C[C@H](NC(=O)[C@@H](NC(=O)[C@H](C)NC(=O)[C@H](C)NC(=O)[C@H](Cc1ccccc1)NC(=O)[C@H](C)NC(=O)[C@H](CC1CCCCC1)NC(=O)[C@H](C)NC(=O)[C@@H](C)N)[C@@H](C)O)C(=O)N[C@@H](CCCCN)C(=O)N[C@@H](C)C(=O)N[C@@H](C)C(=O)N[C@H](C)C(N)=O) [906.17],fold increase in binding vs 760.57,[12],2 to 4 fold
same,fold increase in reactivity vs 760.57,[10],100 fold
[dA]A[Cha]AAQATLKAA[dA]-NH2 (N-terminus assumed; SMILES CC(C)C[C@H](NC(=O)[C@@H](NC(=O)[C@H](C)NC(=O)[C@H](CCC(N)=O)NC(=O)[C@H](C)NC(=O)[C@H](C)NC(=O)[C@H](CC1CCCCC1)NC(=O)[C@H](C)NC(=O)[C@@H](C)N)[C@@H](C)O)C(=O)N[C@@H](CCCCN)C(=O)N[C@@H](C)C(=O)N[C@@H](C)C(=O)N[C@H](C)C(N)=O) [906.20],fold reduction of binding vs 760.57,[11],30 fold
[dA]A[Cha]AAAKTAAAA[dA] [760.50],IC50,[13],6.1 nM
same,IC50,[14],200 nM
NTDGSTDYGILQINSR (modifications not checked) [HEL46-61],IC50,[15],8500 nM
same,IC50,[9],20 nM
same,IC50,[14],7000 nM
"[dA]K[14]VKANTLKAA[dA]-NH2 (reading uncertain; also: printed as aK(14)VKANTLKAAa-NH2) [peptide 965.011, aK(14)…a-NH2]",IC50,[3],592 nM
same,IC50,[1],11.8 nM
[dA]A[Cha]AAEATLKAA[dA]-NH2 [906.19],IC50,[12],1500 nM
[dA]A[Cha]AVAATLKAA[dA]-NH2 (N-terminus assumed; SMILES CC(C)C[C@H](NC(=O)[C@@H](NC(=O)[C@H](C)NC(=O)[C@H](C)NC(=O)[C@@H](NC(=O)[C@H](C)NC(=O)[C@H](CC1CCCCC1)NC(=O)[C@H](C)NC(=O)[C@@H](C)N)C(C)C)[C@@H](C)O)C(=O)N[C@@H](CCCCN)C(=O)N[C@@H](C)C(=O)N[C@@H](C)C(=O)N[C@H](C)C(N)=O) [906.16],fold increase in binding vs 760.57,[12],2 to 4 fold
same,fold increase in reactivity vs 760.57,[10],100 fold
AKFVAAWTLKAAA (modifications not checked) [1024.03],IC50,[13],18 nM
same,IC50,[7],2 nM
same,IC50,[8],3500 nM

# From patent US6413935
